The supplement of paper PMC9170038

Experiments:
MS2 coat protein [1] = assay: apparent KD of MS2 coat protein, switch OFF state (with FMN for OFF switches, without FMN for ON switches); designed switch direction (-1 OFF switch, 1 ON switch): -1; higher = weaker reporter binding; details: FMN input: 0 or 200 uM; Eterna round: R93 (includes R88 designs)
Outline: (§1)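 Designed RNA switches were transcribed on-chip from Illumina sequencing clusters and titrated with SNAP-549-labelled MS2 coat protein in twofold steps from 0.7 or 1.5 nM up to 3 µM. Each step lasted 0.8–1.5 h at first and 10–20 min by the end, in 100 mM Tris-HCl pH 7.5, 80 mM KCl and 4 mM MgCl2, without or with constant ligand. Apparent KD is the median, for each design, of fits to normalised cluster binding curves.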

MS2 coat protein [2] = assay: apparent KD of MS2 coat protein, switch ON state; designed switch direction (-1 OFF switch, 1 ON switch): -1; higher = weaker reporter binding; details: FMN input: 0 or 200 uM; Eterna round: R93 (includes R88 designs)
Outline: as §1

Row | Sequence | apparent KD of MS2 coat protein (MS2 coat protein [1]) | apparent KD of MS2 coat protein (MS2 coat protein [2])
1 | GAAAAACAUGAGGAUCACCCAUGUCAGGAUAUGCAGAAAAAGAAAAAAAGAAAAGAAAGUAGAAGGGACAAAAG [Mat - Same state - Mayanna Mod - D106] | 28.6 nM | 29.4 nM
2 | AAAAUGUUAGGAUAUGUGAAGGCGUCUGAUAGACGAGGCCUGCAGAAGGGACAUGAGGAUCACCCAUGUAAAAA [Mod 1 of Nando's Round 1 Power Srip] | 24.7 nM | 53.9 nM
3 | GGUUUGCAAGGAUAUACAUGAGGAUCACCCAUGUGAGAGAAAAAAGUGAGAAAGAAAAGUAGAAGGUGCGGACG [salish99-ex3-121] | 62.7 nM | 22.3 nM
4 | GAAACACAUGAGGAUCACCCAUGUCAGGAUAUGUAGAUAAAAAGAAAAUAAAAUAAAAGCAGAAGGGACAAAAG [Mat - Same state - Mayanna Mod - D104] | 29.4 nM | 30.2 nM
5 | AAAAAACAUGAGGAUCACCCAUGUCAGGAUAUCGAAAGAAAAAAAAAGAAAGAAAAAACGAGAAGGGACAAAAA [Amethyst 29] | 33.1 nM | 20.1 nM
6 | AAGGGACAUGAGGAUCACCCAUGUCAGGAUAUGCUAUGGAAAAUAAAAAUAAAACAUAGCAGAAGGGACAAAAA [Denovo 4] | 53.1 nM | 38.5 nM
7 | AAAAAACAUGAGGAUCACCCAUGUAAGGAUAUGCUCGAAAGUGCGAAAGCACAAACGAGCAGAAGGUACAAAAA [66%, Wbt, 45] | 51.9 nM | 34.7 nM
8 | AAAUAGACAGGAUAUGCAUGAAAAUUAAAAAAAAAAAAAAAACAUGAGGAUCACCCAUGUAGAAGGGUCAAAAA [Exclusion 2 - Omei 1] | 75.8 nM | 66.6 nM
9 | AAGAACGCAGGAUAUACAUGAGGAUCACCCAUGUAAAAGAAAGAAGGGAAAGAGAAAAGUAGAAGGGCGAAGAA [Usermaatre-setepenamun Iuput I] | 41.8 nM | 35.3 nM
10 | CAGUACUGAGGAUAUACAUGAGGAUCACCCAUGUGUUAAAGCUAGGAAACUAGCAAAUGUAGAAGGCAGUACUG [Ex3: 817] | 47.9 nM | 14 nM
11 | AAGGAGUGAGGAUAUCGGAAAGGACACGAAAGUGACAAAGACGAGAAGGCACAUGAGGAUCACCCAUGUAAAAA [milkweed 22] | 34.6 nM | 38.7 nM
12 | AACUAACAUGAGGAUCACCCAUGUCAGGAUAUGCAUCGAUCGAUCGAUCGAUCGAUCAGCAGAAGGGACAAAAA [Amethyst 92] | 37 nM | 22.3 nM
13 | AAAACGGUAGGAUAUACAAUUGAGAACUAGAUCGAAAAAAAACAUGAGGAUCACCCAUGUAGAAGGGCCAAAAA [Ex2 Malc#10] | 23.6 nM | 38.2 nM
14 | AAAAAACAUGAGGAUCACCCAUGUGAGGAUAUCCUAAAAAAAAAAAAAAAAAAAAAAAGGAGAAGGCACAUAAA [EXCLS-II] | 64.8 nM | 47.6 nM
15 | GAUCCACAUGAGGAUCACCCAUGUGAGGAUAUCGUGCAGAAAAAAAAAAAAAACUGCACGAGAAGGCACAUGGG | 13 nM | 19.4 nM
16 | CUCUUGUCAGGAUAUUCAAGAAAAGAAGAGAAAGAAAAGAAGAAGAAGGGACAUGAGGAUCACCCAUGUAAGAA [EteRNA is fun!] | 67.2 nM | 52.4 nM
17 | AAGGAGUAAGGAUAUCGGAAAGGACACGAAAGUGACAAAGACGAGAAGGUACAUGAGGAUCACCCAUGUAAAAA [milkweed 23] | 14.5 nM | 24.9 nM
18 | AAAAAGUGAGGAUAUACGCUGAAGAGUAGACACAACCAGGCGUAGAAGGCACAUGAGGAUCACCCAUGUCCAAA [Ex4 Malc#10] | 41.2 nM | 21.2 nM
19 | CUUAAGUCAGGAUAUGUCAAAAGUCACAAAAGUGACAAAAGACAGAAGGGACAUGAGGAUCACCCAUGUAAAAA [Starry Exclusion 4.5 (starryjess round 1 mod)] | 139 nM | 78.3 nM
20 | AGCUAGUCAGGAUAUACAUAAAAAAAAAAAAAAAGUGAUAAACAUGAGGAUCACCCAUGUAGAAGGGACUAGCA [Similarities v.4.2 (34 mutated to A)] | 48.3 nM | 29 nM
21 | AACUGACAUGAGGAUCACCCAUGUCAGGAUAUGACUUCGAAAAAUAAAAUAAACGAUGUCAGAAGGGACAUGGA [Design 67: Sub-opt NB] | 41.1 nM | 21.5 nM
22 | AAGAAGUCAGGAUAUCCAAAAGAAAAGAAAAGAAAAGAAAAGGAGAAGGGACAUGAGGAUCACCCAUGUAAGAA [Khnemibre Ahmose II] | 20.9 nM | 71.3 nM

Row | Sequence | apparent KD of MS2 coat protein (MS2 coat protein [1]) | apparent KD of MS2 coat protein (MS2 coat protein [2])
23 | AAGAAACAUGAGGAUCACCCAUGUGAGGAUAUGGAAAAGAAAAGAAAAGAAAGAAGAAUCAGAAGGCACAAAGG [Meryhathor] | 26.9 nM | 46.4 nM
24 | AAAAAACAUGAGGAUCACCCAUGUAAGGAUAUGCUGAAAAACACUGGAAAACAGUGCAGCAGAAGGUACAAAAA [66%, Wbt, 34] | 36.1 nM | 21.1 nM
25 | AGCUAGCUAGGAUAUACGAACAUGUCAAAAGACGUGAAGGGACAUGAGGAUCACCCAUGUAGAAGGAGCUAGCA [JL 74% mod 6] | 121 nM | 28.7 nM
26 | CAUUCACAUGAGGAUCACCCAUGUAAGGAUAUCGAAAUAUAACUAAUCAAUAAACAAACGAGAAGGUACAAAAA [Exclusion 1 design 10] | 23.8 nM | 33.7 nM
27 | AGGAACCUAGGAUAUACAUGAGGAUCACCCAUGUCACGAGUCAAACACAGGUAUCCUAGUAGAAGGAGGAACAC [Inlaveor] | 42.1 nM | 22 nM
28 | GGGUAACAUGAGGAUCACCCAUGUGAGGAUAUCCUAGGGAUGGAAGCCAGGCCAAAAAGGAGAAGGUACUAAAG [Janelle Amethyst 18 Mod 17 - Jieux - Exclusion 1] | 72.4 nM | 54.2 nM
29 | CAAAGGUGAGGAUAUGCAUAACUAUGACGAAAGUCAUAAACACAUGAGGAUCACCCAUGUAGAAGGCGCCACAA [e2-3] | 57.2 nM | 78.8 nM
30 | UCCUGACAUGAGGAUCACCCAUGUCAGGAUAUAGUAUGAAAAAAAAAAAAAAAAAAUACUAGAAGGGACAUGGG [Design 12: Super Stable Short Helix 3] | 21.6 nM | 29.2 nM
31 | AUAGGCCUAGGAUAUACAUGAGGAUCACCCAUGUAAACCGAUAGAUCACGGUAAACGAGUAGAAGGAGGAAUAA [JR_Exc003_Sub208] | 30.3 nM | 26.5 nM
32 | AAUAGUGAAGGAUAUACAGGAGAAGUACGAUAAAAGAAAGAACAUGAGGAUCACCCAUGUAGAAGGUCAGAAGU [JR_Exc002_Sub1228] | 26.3 nM | 33.6 nM
33 | AAAGGUACAGGAUAUGCGUGGAAAAAGUGUAUUCAAAAAAAACAUGAGGAUCACCCAUGUAGAAGGGUACCAAA [MS2 Riboswitches On Chip Exclusion 2 wbt1] | 253 nM | 69.7 nM
34 | UAAAAGUGAGGAUAUGUCAAAAGUCACAAAAGUGACAAAAGACAGAAGGCACAUGAGGAUCACCCAUGUGAAAU [Mat - Exaclusion 4 - Eli mod - D56] | 32.2 nM | 23.3 nM
35 | AGCUGGUUAGGAUAUACAUGAGGAUCACCCAUGUUAAAAAAAAAAAAAAGAUUAAAGUGUAGAAGGGAUUAGUA [Banishment 9 - Jieux - Exclusion 3] | 34.4 nM | 29.3 nM
36 | GCUUGCGAAGGAUAUACAUGAGGAUCACCCAUGUGAGAGAAAAAAGUGAGAAAGAAAAGUAGAAGGUCGUGAGG [salish99-ex3-95] | 72.8 nM | 28.3 nM
37 | CGUUGGCGAGGAUAUACAUGAGGAUCACCCAUGUGAGAGAAAAAAGUGAGAAAGAAAAGUAGAAGGCGCUGACA [salish99-ex3-11] | 264 nM | 45.3 nM
38 | AGCUAGUCAGGAUAUACGAACAUGUAAAAAGACGUGAAGGGACAUGAGGAUCACCCAUGUAGAAGGGACUAGCA [74%, Web mod - With 1 less C's] | 108 nM | 33.9 nM
39 | AAGAAGCGAGGAUAUACAAAAUAAAAGAAAAGAAAGAAAGAACAUGAGGAUCACCCAUGUAGAAGGUGCAAGAA [Sehetepkare Intef IV] | 43.5 nM | 46.7 nM
40 | AAAAGGAUAGGAUAUACAUGAGGAUCACCCAUGUGAAAAAAUAAAAAAAAAAAAAAAAGUAGAAGGGUCAAAAA [LROPPY Exclusion 3 - v05_deltaG=3.6] | 53.7 nM | 40.2 nM
41 | AACAGUACAGGAUAUACAUGAGGAUCACCCAUGUGAAAAUUAAGUGGCGUACCACAAAGUAGAAGGGUACUGGA [Moding Maslow revisited (73) 3] | 86.4 nM | 29.4 nM
42 | AAGAACUGAGGAUAUACAUGAGGAUCACCCAUGUAAAAGAAAGAAAAGGGAAAGAAAAGUAGAAGGCAGAAGAA [Nebmaatre Amenhotep III] | 42.8 nM | 36.9 nM
43 | AAAAAGUCAGGAUAUACGUACAUGUCAAAAGACGUGAAGGGACAUGAGGAUCACCCAUGUAGAAGGGACAAGAA [JL Stem Breaker 21] | 49.6 nM | 106 nM
44 | AUAAAGACAGGAUAUACAUGAGGAUCACCCAUGUAAAAAAAAAAAUGAUCCUCAAAAAGUAGAAGGGUCAAUAA [JR_Exc003_Sub015] | 155 nM | 78.7 nM
